In the supplement of paper PMC10567573:
± gives the standard deviation.

Assay: protein stability index of a GFP-peptide fusion (GPS, HEK-293T) (PSI 1-6); higher = more stable
Details: c terminus: a fixed tail appended
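Further: 24-mer peptide tiles fused after GFP, lentivirally expressed, FACS-sorted into six equal bins by GFP/DsRed ratio, decoded by Illumina sequencing, PSI is the read-weighted mean bin number.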

Sequence	protein stability index (treatment: DMSO)	protein stability index (treatment: MLN4924 1 uM, 8 h)
DPVELRRLNFQTPGMASHPPIPIL [PTPRD]	2.91 ± 0.19	3.04 ± 0.33
DSDIPEIPPSSDRTPEILKKALSG [CDS1]	5.2 ± 0.21	5.39 ± 0.19
DSEFSMQEPMVPAKLGTQAEKDRR [PPFIA4]	4.9 ± 0.77	5.646 ± 0.045
DSGDSKDIRLTLMEEVLLLGLKDK [GOLPH3L]	3.24 ± 0.19	3.25 ± 0.34
DSGTCPEVDEEGFTVRPDVTQNST [FCHO1]	5.43 ± 0.28	5.4 ± 0.15
DSSEEESHRVVLRPRGKERHKSGV [LYSMD4]	5.21 ± 0.28	5.14 ± 0.11
DTRRLITKPQNLNDAYGPPSNFLE [SNX3]	3.69 ± 0.17	3.88 ± 0.17
DTTELSSAERYNPRTNQWSPVVAM [KLHL20]	3.5 ± 0.17	3.7 ± 0.19
DVQSMPKTGILILILSIIFIEGYC [MAGEA10]	2.86 ± 0.97	2.88 ± 1.2
DVVEDYKKRYEEEINKRTAAENEF [KRT71]	5.13 ± 0.093	5.37 ± 0.3
DWLRRPLGEDNQPETQLFWDKEPW [TLE6]	3.35 ± 0.34	3.22 ± 0.43
DYVHISSKPCDLHCTTVDGQRQLM [ADAMTSL2]	3.45 ± 0.29	3.44 ± 0.23
EAEADEEADPPASDLPTPQAIEPQ [SNX8]	5.62 ± 0.17	5.63 ± 0.26
EALITDPDEMRMQALLIRERILGP [FEM1A]	3.56 ± 0.26	3.45 ± 0.26
EASQLRRLNIKKDDEFFHFVLLCF [TMEM40]	2.15 ± 0.25	2.22 ± 0.26
EAVPEGPDGGGPWLEDEPGRGAQG [ZSWIM9]	5.45 ± 0.52	5.56 ± 0.35
EDLAQKLNLEEDRIQIWFQNRRAK [HESX1]	4.12 ± 0.55	4.11 ± 0.47
EDMLWDDLLHGPECRSSVTSDSEG [PHTF1]	5.07 ± 0.3	5.16 ± 0.16

Sequence	protein stability index (treatment: DMSO)	protein stability index (treatment: MLN4924 1 uM, 8 h)
EDPDYYGQEIWSREPYYARPEPEL [CPXM2]	4.38 ± 0.11	
EEAEELAKEMSVPFYTSRIDEVLL [GFOD1]	3.83 ± 0.24	4.11 ± 0.33
EEANADLEVKIHDWYQKQTPTSPE [KRT15]	5.33 ± 0.23	5.29 ± 0.16
EEDNDDAKILPSPVQGSSEDNLSL [DRICH1]	5.57 ± 0.25	5.55 ± 0.17
EELEEALEVERQENEQRRLFIQKE [MNAT1]	5.05 ± 0.24	5 ± 0.16
EEPTERGNLEVGEPQSEPVRVLDM [FBXO34]	5.34 ± 0.17	5.5 ± 0.16
EEQRVEQQTKLEAEKLKVQALKDR [LSM1]	5.55 ± 0.28	5.36 ± 0.12
EESYYCRCHRGYTLDPNGKTCSRV [MATN2]	2.82 ± 0.53	3.09 ± 0.55
EEVAKAVLEQEETAAASRERQEEQ [EPB41L3]	5.71 ± 0.078	5.63 ± 0.19
EFMKDRLYFATLRNRPKSTVNTHY [CDC14A]	2.11 ± 0.23	2.17 ± 0.59
EFSTSLFSGSLEPVACGSVLSEGS [SRPK2]	3.98 ± 0.19	4.04 ± 0.26
EGAQLKKVEQNSRPVSCSGRDALL [WASL]	4.53 ± 0.39	4.72 ± 0.48
EGDATRDPGPEPEEEPGVRNGMAS [PSD2]	5.7 ± 0.16	5.38 ± 0.34
EGGIFTSPNYPSKYPPDRECIYII [NETO1]	2.76 ± 0.94	2.95 ± 0.7
EGSDYINASFIDGYRQQKAYIATQ [PTPRD]	3.18 ± 0.25	3.34 ± 0.23
EGSPRNLGTPTSSTPRPSITPTKK [C2CD2L]	5.35 ± 0.19	5.34 ± 0.17
EHPGGEEVLREQAGGDATENFEDV [CYB5A]	5.47 ± 0.2	5.54 ± 0.24
EIDTQGRHLAHSMLQRAIAYQHSG [C10orf62]	2.91 ± 0.24	3.15 ± 0.28
